According to the supplement of paper PMC7125110:
± gives the standard error. Variants at the floor of the assay were thinned out.

B1: glmS ribozyme (parent)
chain: AUAAAAGCGCCAGAACUACAGAAAUGUAGUUGACGAGGAGGAGGUUUAUCGAAUUUUCGGCGGAUGCCUCCAAA

Experiments:
Settings in all cases: with glucosamine-6-phosphate
glucosamine-6-phosphate [1] = variants of: B1; experiment: self-cleavage kobs at 40 uM GlcN6P; higher = faster cleavage; RNA array
How it was run: (§1)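 Weighted Michaelis–Menten fits across concentrations supplied kcat and KM, based on kobs from one- or two-exponential decay fits to normalised per-tile medians. The data came from barcoded ribozyme variants transcribed in situ by E. coli RNA polymerase on sequenced MiSeq chips and tracked at 37 °C by a hybridised Cy3 probe. Glucosamine-6-phosphate (40 μM to 10 mM) in HEPES/KCl/Mg(OAc)2 buffer was flowed in.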

glucosamine-6-phosphate [2] = variants of: B1; experiment: self-cleavage kobs at 640 uM GlcN6P; higher = faster cleavage; RNA array
How it was run: as §1

glucosamine-6-phosphate [3] = variants of: B1; experiment: self-cleavage kobs at 2500 uM GlcN6P; higher = faster cleavage; RNA array
How it was run: as §1

glucosamine-6-phosphate [4] = variants of: B1; experiment: self-cleavage kobs at 10000 uM GlcN6P; higher = faster cleavage; RNA array
How it was run: as §1

glucosamine-6-phosphate [5] = variants of: B1; experiment: self-cleavage kobs at 160 uM GlcN6P; higher = faster cleavage; RNA array
How it was run: as §1

| Variant | self-cleavage kobs at 40 uM GlcN6P (glucosamine-6-phosphate [1]) [s⁻¹] | self-cleavage kobs at 640 uM GlcN6P (glucosamine-6-phosphate [2]) [s⁻¹] | self-cleavage kobs at 2500 uM GlcN6P (glucosamine-6-phosphate [3]) [s⁻¹] | self-cleavage kobs at 10000 uM GlcN6P (glucosamine-6-phosphate [4]) [s⁻¹] | self-cleavage kobs at 160 uM GlcN6P (glucosamine-6-phosphate [5]) [s⁻¹] |
| --- | --- | --- | --- | --- | --- |
| A36U G37U G40A A52C C58U | < 1e-05 | – | – | – | – |
| A36U U46G A53U | < 1e-05 | < 1e-05 | < 1e-05 | < 1e-05 | – |
| A36C G43A U47C | < 1e-05 | – | – | – | – |
| A36U C50G A64G C70G | 0.000457 ± 0.00012 | – | 0.000298 ± 0.00013 | 0.000194 ± 4.9e-05 | – |
| A36G G44U | < 1e-05 | < 1e-05 | – | < 1e-05 | < 1e-05 |
| G37U A42U | < 1e-05 | < 1e-05 | – | – | < 1e-05 |
| A36C G37A G59C C71U | < 1e-05 | – | < 1e-05 | < 1e-05 | – |
| A36U U47G A53G C68G | 7.44e-05 ± 2.6e-05 | – | – | 0.000107 ± 3.7e-05 | – |
| A36G C50G U56G C61A | 0.000189 ± 6.2e-05 | – | – | 0.000459 ± 0.00011 | – |
| G38U A39U G60C C68A | < 1e-05 | – | < 1e-05 | – | – |
| A36C G60U C67A | < 1e-05 | – | – | < 1e-05 | – |
| G35A A36G A48G A53G | < 1e-05 | – | – | < 1e-05 | – |
| A36U C50U A52G C70G | 0.000113 ± 3.1e-05 | 0.000329 ± 7.9e-05 | 0.000173 ± 8.2e-05 | – | – |
| G35A A48U | < 1e-05 | < 1e-05 | < 1e-05 | < 1e-05 | < 1e-05 |
| G37C G60U | < 1e-05 | – | – | < 1e-05 | < 1e-05 |
| G35A A36G | < 1e-05 | < 1e-05 | < 1e-05 | – | < 1e-05 |
| G35A A36C | < 1e-05 | < 1e-05 | < 1e-05 | – | < 1e-05 |
| G38U G41C C68G | < 1e-05 | – | – | < 1e-05 | – |
| A36U C61G A64C | < 1e-05 | – | – | – | – |
| G38C G60C C70U | < 1e-05 | – | – | – | – |
| C34U G38C C67U | < 1e-05 | – | – | < 1e-05 | – |
| A36U A42U C68U | < 1e-05 | – | – | – | – |
| A36U C58U | < 1e-05 | < 1e-05 | < 1e-05 | < 1e-05 | – |

| Variant | self-cleavage kobs at 40 uM GlcN6P (glucosamine-6-phosphate [1]) [s⁻¹] | self-cleavage kobs at 640 uM GlcN6P (glucosamine-6-phosphate [2]) [s⁻¹] | self-cleavage kobs at 2500 uM GlcN6P (glucosamine-6-phosphate [3]) [s⁻¹] | self-cleavage kobs at 10000 uM GlcN6P (glucosamine-6-phosphate [4]) [s⁻¹] | self-cleavage kobs at 160 uM GlcN6P (glucosamine-6-phosphate [5]) [s⁻¹] |
| --- | --- | --- | --- | --- | --- |
| G35C G41A | < 1e-05 | < 1e-05 | < 1e-05 | < 1e-05 | < 1e-05 |
| G35C G41U | < 1e-05 | < 1e-05 | < 1e-05 | < 1e-05 | < 1e-05 |
| G35C U55C | < 1e-05 | – | < 1e-05 | < 1e-05 | < 1e-05 |
| A36U G44U | < 1e-05 | < 1e-05 | < 1e-05 | < 1e-05 | < 1e-05 |
| A36U C68G C70U | 8.4e-05 ± 2.2e-05 | – | – | 0.000213 ± 4.7e-05 | – |
| C34U G40C | < 1e-05 | < 1e-05 | – | < 1e-05 | – |
| A36U A48U G51U U65G | < 1e-05 | – | – | – | – |
| G35A G60A G66U C67U U69G | < 1e-05 | – | < 1e-05 | – | – |
| A36C A53G | < 1e-05 | – | – | < 1e-05 | – |
| A36U G43C | < 1e-05 | < 1e-05 | < 1e-05 | – | < 1e-05 |
| G37U G51C C71U | < 1e-05 | < 1e-05 | – | < 1e-05 | < 1e-05 |
| G35A U47G | < 1e-05 | < 1e-05 | < 1e-05 | < 1e-05 | < 1e-05 |
| G37U G44C | < 1e-05 | < 1e-05 | – | – | < 1e-05 |
| A36G G38A C58A | < 1e-05 | < 1e-05 | – | < 1e-05 | – |
| G37A A52C C61A | < 1e-05 | – | – | < 1e-05 | – |
| G35C A39C | < 1e-05 | < 1e-05 | < 1e-05 | < 1e-05 | < 1e-05 |
| G35U G59A | < 1e-05 | < 1e-05 | – | – | – |
| G37A G38U C71U | < 1e-05 | – | – | – | – |
| G38C U45C U55C | < 1e-05 | – | < 1e-05 | – | – |
| G38U A53G | < 1e-05 | < 1e-05 | – | – | < 1e-05 |
| G35A A64U C71A | < 1e-05 | – | – | – | – |
| G35U C58G G62U | < 1e-05 | – | – | – | – |
| A36G G41A | < 1e-05 | < 1e-05 | < 1e-05 | < 1e-05 | < 1e-05 |

| Variant | self-cleavage kobs at 40 uM GlcN6P (glucosamine-6-phosphate [1]) [s⁻¹] | self-cleavage kobs at 640 uM GlcN6P (glucosamine-6-phosphate [2]) [s⁻¹] | self-cleavage kobs at 2500 uM GlcN6P (glucosamine-6-phosphate [3]) [s⁻¹] | self-cleavage kobs at 10000 uM GlcN6P (glucosamine-6-phosphate [4]) [s⁻¹] | self-cleavage kobs at 160 uM GlcN6P (glucosamine-6-phosphate [5]) [s⁻¹] |
| --- | --- | --- | --- | --- | --- |
| G37C C50U C70A | 0.00229 ± 0.00095 | – | – | – | – |
| G38A G41U | < 1e-05 | < 1e-05 | – | < 1e-05 | < 1e-05 |
| G38A G41A | < 1e-05 | < 1e-05 | < 1e-05 | < 1e-05 | < 1e-05 |
| A36C G40A U56G | < 1e-05 | – | – | – | – |
| A36G G60U G66U | < 1e-05 | < 1e-05 | < 1e-05 | < 1e-05 | – |
| G38C A39U | < 1e-05 | < 1e-05 | – | – | – |
| G38A U49G A52U | < 1e-05 | – | – | – | – |
| G37U G41U U65C | < 1e-05 | – | – | – | – |
| G37U U65G G66U | < 1e-05 | – | – | – | – |
| G37U G38A | < 1e-05 | – | – | < 1e-05 | – |
| A36G C50G C68U | 0.000269 ± 0.0001 | 0.000436 ± 0.00017 | 9.73e-05 ± 3.6e-05 | 0.000205 ± 5.4e-05 | 0.000434 ± 0.00013 |
| G38U G44U U69G C70G | < 1e-05 | – | – | – | – |
| G35C A52C | < 1e-05 | < 1e-05 | < 1e-05 | < 1e-05 | < 1e-05 |
| G38C U65G G66A | < 1e-05 | < 1e-05 | < 1e-05 | – | < 1e-05 |
| A36U G66U | < 1e-05 | < 1e-05 | – | < 1e-05 | < 1e-05 |
| G37A A42U C70A | < 1e-05 | – | – | – | – |
| G37A G51A A53C | < 1e-05 | – | – | < 1e-05 | – |
| G38A A39G | < 1e-05 | < 1e-05 | < 1e-05 | – | < 1e-05 |
| A36C G43A U55A C71U | < 1e-05 | < 1e-05 | < 1e-05 | < 1e-05 | – |
| A36G G60U | < 1e-05 | < 1e-05 | < 1e-05 | < 1e-05 | < 1e-05 |
| G35U A53G | < 1e-05 | < 1e-05 | < 1e-05 | < 1e-05 | < 1e-05 |
| G35A U65C | < 1e-05 | < 1e-05 | < 1e-05 | < 1e-05 | < 1e-05 |
| G35A U65A | < 1e-05 | < 1e-05 | < 1e-05 | < 1e-05 | < 1e-05 |

| Variant | self-cleavage kobs at 40 uM GlcN6P (glucosamine-6-phosphate [1]) [s⁻¹] | self-cleavage kobs at 640 uM GlcN6P (glucosamine-6-phosphate [2]) [s⁻¹] | self-cleavage kobs at 2500 uM GlcN6P (glucosamine-6-phosphate [3]) [s⁻¹] | self-cleavage kobs at 10000 uM GlcN6P (glucosamine-6-phosphate [4]) [s⁻¹] | self-cleavage kobs at 160 uM GlcN6P (glucosamine-6-phosphate [5]) [s⁻¹] |
| --- | --- | --- | --- | --- | --- |
| G38C A48U | < 1e-05 | – | – | < 1e-05 | – |
| G37A U56G | 5.06e-05 ± 1.6e-05 | – | – | 0.00174 ± 0.00028 | – |
| A36U G41A | < 1e-05 | < 1e-05 | < 1e-05 | < 1e-05 | < 1e-05 |
| G37U G41U | < 1e-05 | – | < 1e-05 | < 1e-05 | < 1e-05 |
| G38U A39G G43U G44C | < 1e-05 | – | – | < 1e-05 | – |
| C34U G41U G62U | < 1e-05 | – | – | – | – |
| G35C U46G | < 1e-05 | < 1e-05 | < 1e-05 | < 1e-05 | < 1e-05 |
| G35U G38C | < 1e-05 | < 1e-05 | < 1e-05 | < 1e-05 | – |
| G35U C68A | < 1e-05 | < 1e-05 | < 1e-05 | < 1e-05 | < 1e-05 |
| A36U G59C | < 1e-05 | < 1e-05 | – | < 1e-05 | – |
| A36U G59U | < 1e-05 | < 1e-05 | – | < 1e-05 | – |
| G37C U46G A48U | < 1e-05 | – | – | < 1e-05 | – |
| G35U G37C U56G | < 1e-05 | < 1e-05 | < 1e-05 | – | – |
| G38U G40C | < 1e-05 | < 1e-05 | < 1e-05 | < 1e-05 | – |
| A36U U55G | < 1e-05 | – | – | – | – |
| G37U A52U U56C | < 1e-05 | < 1e-05 | < 1e-05 | – | – |
| G37U C58A G60C C70A | < 1e-05 | – | – | < 1e-05 | – |
| G38A A39G U45G C50G | < 1e-05 | – | < 1e-05 | – | – |
| G37C A39G | < 1e-05 | – | – | 3.63e-05 ± 7.3e-06 | – |
| G37C C50G C58G C67G | 0.00014 ± 3.9e-05 | 0.000349 ± 8.1e-05 | 6.52e-05 ± 2.2e-05 | 0.000593 ± 0.00017 | 0.00039 ± 0.00012 |
